From US20160101154A1 (SAMSUNG ELECTRONICS, published 2016)

Columns and labels:
[1] = target: T1, Tie2 proteins (Q02763, R&D systems) (UniProt Q02763 23-745, limits assumed); test: ELISA, Tie2 coated, Ang2 proteins at 5 µg/ml
T1 construct: Bought protein coated on ELISA plates

[2] = target: T2, integrin alpha5beta1 protein (R&D systems) (human, UniProt P08648 42-995; P05556 21-728, limits assumed); test: ELISA, integrin coated at 5 µg/ml, FLAG-Ang2 at 10 µg/ml, anti-FLAG-HRP
T2 construct: Bought recombinant heterodimer coated on the ELISA plate; also called α5β1

[3] = target: T3, integrin alphaVbeta1 protein (R&D systems) (human, UniProt P06756 31-992; P05556 21-728); test: as above
T3 construct: Bought recombinant heterodimer coated on the ELISA plate; also called αVβ1

[4] = target: T4, integrin alphaVbeta3 protein (R&D systems) (human, UniProt P06756 31-992; P05106 27-718); test: as above
T4 construct: Bought recombinant heterodimer coated on the ELISA plate; also called αVβ3; integrin (αVβ3)

integrin on U87MG cells = test: cell-based or functional assay
[5] = target: T4, integrin alphaVbeta3 protein (R&D …); test: ELISA, integrin αVβ3 coated, Ang2 proteins at 5 µg/ml

T1 sequence (Q02763 23-745 limits assumed, one chain of several): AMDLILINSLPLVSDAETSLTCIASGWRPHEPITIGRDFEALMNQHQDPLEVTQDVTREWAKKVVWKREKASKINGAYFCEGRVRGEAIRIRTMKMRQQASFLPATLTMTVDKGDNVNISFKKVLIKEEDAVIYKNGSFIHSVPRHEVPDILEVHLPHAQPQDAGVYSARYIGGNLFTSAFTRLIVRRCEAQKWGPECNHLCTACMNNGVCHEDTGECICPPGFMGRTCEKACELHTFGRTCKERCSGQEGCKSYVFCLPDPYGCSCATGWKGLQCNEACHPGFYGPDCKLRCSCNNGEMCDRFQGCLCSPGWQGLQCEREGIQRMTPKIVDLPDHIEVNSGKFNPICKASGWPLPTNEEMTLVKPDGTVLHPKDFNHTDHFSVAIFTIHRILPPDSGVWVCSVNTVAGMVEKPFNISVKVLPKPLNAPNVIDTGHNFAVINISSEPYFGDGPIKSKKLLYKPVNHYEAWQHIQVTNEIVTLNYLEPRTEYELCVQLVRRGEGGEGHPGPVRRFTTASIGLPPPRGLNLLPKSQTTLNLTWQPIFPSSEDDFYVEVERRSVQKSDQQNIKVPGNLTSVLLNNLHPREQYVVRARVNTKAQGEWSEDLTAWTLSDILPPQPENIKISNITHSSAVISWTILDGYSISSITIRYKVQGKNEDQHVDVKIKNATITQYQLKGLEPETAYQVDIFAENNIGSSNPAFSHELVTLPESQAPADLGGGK
T4 sequence (P06756 31-992 limits assumed, chain 1 of 2): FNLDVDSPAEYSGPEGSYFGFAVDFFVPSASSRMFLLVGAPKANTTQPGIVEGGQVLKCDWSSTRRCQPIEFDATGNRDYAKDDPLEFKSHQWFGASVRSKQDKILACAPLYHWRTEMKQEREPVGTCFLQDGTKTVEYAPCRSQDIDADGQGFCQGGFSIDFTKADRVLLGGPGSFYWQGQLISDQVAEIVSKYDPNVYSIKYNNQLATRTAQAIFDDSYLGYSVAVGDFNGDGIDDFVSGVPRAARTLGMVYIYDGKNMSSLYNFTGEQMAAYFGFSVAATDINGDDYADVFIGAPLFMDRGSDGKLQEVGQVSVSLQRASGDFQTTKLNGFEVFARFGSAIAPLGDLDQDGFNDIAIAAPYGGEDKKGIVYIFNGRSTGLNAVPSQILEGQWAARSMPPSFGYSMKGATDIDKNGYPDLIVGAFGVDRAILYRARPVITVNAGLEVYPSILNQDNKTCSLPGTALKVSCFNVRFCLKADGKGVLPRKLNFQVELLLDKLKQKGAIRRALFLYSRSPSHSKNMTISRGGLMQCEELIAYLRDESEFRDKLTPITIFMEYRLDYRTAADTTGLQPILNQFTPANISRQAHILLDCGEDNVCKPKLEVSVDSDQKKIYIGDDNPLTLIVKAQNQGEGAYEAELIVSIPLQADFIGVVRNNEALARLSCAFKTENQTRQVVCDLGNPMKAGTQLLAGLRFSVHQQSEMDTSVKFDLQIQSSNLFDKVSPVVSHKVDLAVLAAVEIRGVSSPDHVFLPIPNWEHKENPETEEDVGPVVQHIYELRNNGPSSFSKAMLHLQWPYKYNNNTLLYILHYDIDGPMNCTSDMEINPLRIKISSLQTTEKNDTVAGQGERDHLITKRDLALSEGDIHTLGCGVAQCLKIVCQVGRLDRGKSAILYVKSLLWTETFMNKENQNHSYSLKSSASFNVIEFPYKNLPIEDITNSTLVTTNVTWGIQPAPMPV
T4 sequence (P05106 27-718 limits assumed, chain 2 of 2): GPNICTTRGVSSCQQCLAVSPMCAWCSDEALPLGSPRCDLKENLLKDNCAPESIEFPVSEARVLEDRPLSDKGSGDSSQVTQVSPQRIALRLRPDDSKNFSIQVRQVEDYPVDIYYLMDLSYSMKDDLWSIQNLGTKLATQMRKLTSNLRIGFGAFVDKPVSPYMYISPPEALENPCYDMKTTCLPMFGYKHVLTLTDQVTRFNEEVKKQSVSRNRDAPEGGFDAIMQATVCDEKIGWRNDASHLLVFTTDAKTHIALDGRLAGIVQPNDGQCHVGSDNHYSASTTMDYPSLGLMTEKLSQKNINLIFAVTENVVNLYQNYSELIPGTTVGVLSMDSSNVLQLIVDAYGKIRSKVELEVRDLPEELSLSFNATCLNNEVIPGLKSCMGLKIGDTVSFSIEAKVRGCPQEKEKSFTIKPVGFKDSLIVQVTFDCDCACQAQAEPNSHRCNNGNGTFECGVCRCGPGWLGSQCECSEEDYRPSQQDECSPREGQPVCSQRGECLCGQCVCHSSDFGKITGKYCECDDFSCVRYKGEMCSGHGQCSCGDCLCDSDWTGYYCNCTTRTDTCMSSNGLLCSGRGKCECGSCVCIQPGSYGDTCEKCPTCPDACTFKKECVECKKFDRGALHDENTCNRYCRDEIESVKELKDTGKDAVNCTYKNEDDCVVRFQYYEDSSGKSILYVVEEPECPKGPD
T2 sequence (P08648 42-995 limits assumed, chain 1 of 2): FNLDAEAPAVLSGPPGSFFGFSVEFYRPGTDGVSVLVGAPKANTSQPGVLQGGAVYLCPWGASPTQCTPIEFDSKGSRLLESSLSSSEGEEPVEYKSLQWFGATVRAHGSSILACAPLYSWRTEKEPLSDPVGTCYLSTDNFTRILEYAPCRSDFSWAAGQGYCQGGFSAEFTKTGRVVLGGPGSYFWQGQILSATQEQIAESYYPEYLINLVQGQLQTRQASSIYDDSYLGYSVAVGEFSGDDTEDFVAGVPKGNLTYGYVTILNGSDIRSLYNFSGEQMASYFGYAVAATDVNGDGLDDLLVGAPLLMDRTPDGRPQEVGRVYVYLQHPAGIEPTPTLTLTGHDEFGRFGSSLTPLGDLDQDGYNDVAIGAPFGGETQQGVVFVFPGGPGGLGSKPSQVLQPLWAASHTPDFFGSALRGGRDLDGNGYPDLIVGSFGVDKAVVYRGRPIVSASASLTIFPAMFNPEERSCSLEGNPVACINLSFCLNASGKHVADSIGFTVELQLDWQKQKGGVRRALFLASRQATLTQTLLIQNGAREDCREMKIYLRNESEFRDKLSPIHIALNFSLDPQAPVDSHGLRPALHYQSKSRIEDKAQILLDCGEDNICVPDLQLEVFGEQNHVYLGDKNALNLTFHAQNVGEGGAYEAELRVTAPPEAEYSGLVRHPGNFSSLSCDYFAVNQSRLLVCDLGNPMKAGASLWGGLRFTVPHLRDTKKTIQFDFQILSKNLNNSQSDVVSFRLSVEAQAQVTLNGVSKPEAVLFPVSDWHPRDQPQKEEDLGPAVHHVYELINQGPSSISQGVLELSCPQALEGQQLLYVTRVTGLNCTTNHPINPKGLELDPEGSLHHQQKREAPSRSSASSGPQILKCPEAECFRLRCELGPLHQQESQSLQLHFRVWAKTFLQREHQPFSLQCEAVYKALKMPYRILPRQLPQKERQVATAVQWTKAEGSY
T2 sequence (P05556 21-728 limits assumed, chain 2 of 2): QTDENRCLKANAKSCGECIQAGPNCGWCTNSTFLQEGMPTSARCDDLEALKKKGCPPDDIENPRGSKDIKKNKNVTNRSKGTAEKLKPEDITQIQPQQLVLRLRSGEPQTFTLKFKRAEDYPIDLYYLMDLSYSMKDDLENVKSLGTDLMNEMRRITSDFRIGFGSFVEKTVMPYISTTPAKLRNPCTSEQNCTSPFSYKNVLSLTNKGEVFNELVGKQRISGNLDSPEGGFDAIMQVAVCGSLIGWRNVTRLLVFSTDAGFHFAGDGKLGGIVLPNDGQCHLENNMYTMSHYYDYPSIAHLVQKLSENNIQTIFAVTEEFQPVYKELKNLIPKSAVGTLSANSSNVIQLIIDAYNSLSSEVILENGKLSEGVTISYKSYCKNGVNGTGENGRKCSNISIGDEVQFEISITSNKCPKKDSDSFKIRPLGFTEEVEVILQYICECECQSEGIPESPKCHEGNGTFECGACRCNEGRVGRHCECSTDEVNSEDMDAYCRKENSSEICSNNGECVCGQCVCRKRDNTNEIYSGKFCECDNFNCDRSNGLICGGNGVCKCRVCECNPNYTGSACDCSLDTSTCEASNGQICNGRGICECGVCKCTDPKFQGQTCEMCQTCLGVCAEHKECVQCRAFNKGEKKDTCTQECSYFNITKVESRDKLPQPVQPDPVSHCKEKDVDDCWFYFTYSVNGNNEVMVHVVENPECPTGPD
T3 sequence (P06756 31-992 limits assumed, chain 1 of 2): as the sequence (P06756 31-992 limits assumed, chain 1 of 2) above
T3 sequence (P05556 21-728 limits assumed, chain 2 of 2): as the sequence (P05556 21-728 limits assumed, chain 2 of 2) above

Row | Binder | binding result [1] | decrease in Ang2 dependent cell adhesion of U87MG cells to Ang2-coated plates, peptide at 100 µg/ml (integrin on U87MG cells) | also measured
1 | Ang2 protein having FLAG sequences tagged at its N-terminal (FLAG-Ang2), wild type (ligand, it may include a signal peptide that is absent from the protein; also called FLAG-tagged Ang2; wild-type Ang2 protein) DYKDDDDKYNNFRKSMDSIGKKQYQVQHGSCSYTFLLPEMDNCRSSSSPYVSNAVQRDAPLEYDDSVQRLQVLENIMENNTQWLMKLENYIQDNMKKEMVEIQQNAVQNQTAVMIEIGTNLLNQTAEQTRKLTDVEAQVLNQTTRLELQLLEHSLSTNKLEKQILDQTSEINKLQDKNSFLEKKVLAMEDKHIIQLQSIKEEKDQLQVLVSKQNSIIEELEKKIVTATVNNSVLQKQQHDLMETVNNLLTMMSTSNSAKDPTVAKEEQISFRDCAEVFKSGHTTNGIYTLTFPNSTEEIKAYCDMEAGGGGWTIIQRREDGSVDFQRTWKEYKVGFGNPSGEYWLGNEFVSQLTNQQRYVLKIHLKDWEGNEAYSLYEHFYLSSEELNYRIHLKGLTGTAGKISSISQPGNDFSTKDGDNDKCICKCSQMLTGGWWFDACGPSNLNGMYYPQRQNTNKFNGIKWYYWKGSGYSLKATTMMIRPADF | binds |  | binding result [2]: binds; binding result [3]: binds; binding result [4]: binds
2 | FLAG-Ang2 protein modified form (Q362A) (ligand, also called Q362A Ang2 protein; Q362A modified form) DYKDDDDKYNNFRKSMDSIGKKQYQVQHGSCSYTFLLPEMDNCRSSSSPYVSNAVQRDAPLEYDDSVQRLQVLENIMENNTQWLMKLENYIQDNMKKEMVEIQQNAVQNQTAVMIEIGTNLLNQTAEQTRKLTDVEAQVLNQTTRLELQLLEHSLSTNKLEKQILDQTSEINKLQDKNSFLEKKVLAMEDKHIIQLQSIKEEKDQLQVLVSKQNSIIEELEKKIVTATVNNSVLQKQQHDLMETVNNLLTMMSTSNSAKDPTVAKEEQISFRDCAEVFKSGHTTNGIYTLTFPNSTEEIKAYCDMEAGGGGWTIIQRREDGSVDFQRTWKEYKVGFGNPSGEYWLGNEFVSALTNQQRYVLKIHLKDWEGNEAYSLYEHFYLSSEELNYRIHLKGLTGTAGKISSISQPGNDFSTKDGDNDKCICKCSQMLTGGWWFDACGPSNLNGMYYPQRQNTNKFNGIKWYYWKGSGYSLKATTMMIRPADF | binds |  | invasion of U87MG cells through matrigel-coated transwell toward 5 µg/ml Ang2 protein, 48 hours (fraction of wild type Ang2) (integrin on U87MG cells): 0.5; binding level relative to the wild type Ang2 [5]: ≤ 50%
3 | HTTNGIYTLTFPNST [Ang2 derived peptide of SEQ ID No. 3] |  | > 50% | 

More lines, main results first:

Row | binding result [1] | decrease in Ang2 dependent cell adhesion of U87MG cells to Ang2-coated plates, peptide at 100 µg/ml (integrin on U87MG cells) | Binder | also measured
4 |  | > 50% | EYWLGNEFVSQLTNQ [Ang2 derived peptide of SEQ ID No. 15 (Peptide 15)] | 
5 |  | > 50% | IYTLTFPNSTEEIKA [Ang2 derived peptide of SEQ ID No. 4] | 
6 |  | > 50% | LNYRIHLKGLTGTAG [Ang2 derived peptide of SEQ ID No. 24] | 
